From patent US20240093255A1, “BIOSYNTHETIC PRODUCTION OF 2-FUCOSYLLACTOSE” (Conagen Inc., priority 2020, published 2024) come the findings set out here.

Data set [1] can be described thus: GDP-mannose-3,5-epimerase candidate screening (GDP-D-mannose to GDP-L-galactose). The data set is classed as biochemical. The conditions noted are these: enzymatic screening of candidates. The procedure:
The reaction conditions were: 2 mM GDP-D-mannose, 1 mM NAD^+, 50 mM Tris-HCl, pH 8.0 and with or without 0.33 mg/mL At GME. The reactions were incubated at room temperature for 16 hours, quenched by heating at 99° C. for 10 mins, and analyzed using HPLC.

A short description of data set [2]: ASR library activity screen in clarified E. coli lysate. The data set is classed as biochemical. Particulars: 1 mM GDP-L-fucose, 80 mM lactose. On the procedure: (§1) The enzymes listed in Table 5 were expressed in E. coli, and the clarified lysate was normalized based on the OD600 standard curve and used to screen for activity. To the clarified lysate was added 50 mM Tris pH 7.5, 1 mM GDP-L-fucose, and 80 mM lactose, and the reactions were quenched by heating at 99° C. for 10 minutes, and analyzed using the 2′-FL HPLC method.

Data set [3] in a line: Activity comparison of purified FutC enzymes. Format: biochemical. The conditions noted are these: 2 mM GDP-L-fucose, 40 mM lactose, 0.5 mg/mL FutC. The procedure:
An assay was performed to compare the activity of the ASR11 and ASR12 enzymes to the activity of the parent construct, FutC #5 (SEQ ID NO: 29) and Helicobacter pylori FutC (HpFutC, SEQ ID NO: 61), an enzyme commonly used for 2′-FL production. Specifically, the assay conditions were: 2 mM GDP-L-fucose, 40 mM lactose, 50 mM Tris pH 7.5, and 0.5 mg/mL FutC.

Data set [4] in a line: In vitro enzyme cascade converting L-galactose to 2′-FL. The data set is classed as biochemical. The conditions noted are these: 10 mM L-galactose, 0.2 g/L FutC, quenched at 3 hours and 22 hours. The procedure: The reaction conditions were: 50 mM Tris pH 7.5, 10 mM L-galactose, 2 mM ATP, 2 mM GTP, 25 mM acetyl phosphate, 5 mM magnesium chloride, 5 mM potassium chloride, 0.15 mM NADP^+, 0.5 mM NADPH, 40 mM lactose, 0.23 g/L […] (FKP, SEQ ID NO: 1), 0.06 g/L an acetate kinase for the ATP recycling system (Gs Ack, SEQ ID NO: 65), 0.3 g/L At GMD (SEQ ID NO: 79), 0.75 g/L WcaG (SEQ ID NO: 7) and 0.2 g/L ASR 12 (SEQ ID NO: 109). The reactions were quenched by heating at 99° C. […] and analyzed using the 2′-FL LC-MS method.

The conditions of data set [5]: expressed in E. coli.
Text: One of the major limitations for 2′-FL production is FutC activity. After screening various FutC candidates as described in Example 5, the inventors sought to identify mutant FutC candidates with even higher activity and improved solubility using bioinformatics. Based on ancestral sequence reconstruction (ASR) analysis, a series of ASR mutants were designed (Table 5) and screened for their solubility and activity.
as §1

Data set [6] in a line: Dehydratase screening for GDP-L-fucose synthesis from GDP-L-galactose. The data set is classed as biochemical. The procedure: Four enzymes were screened: At Gmd (SEQ ID NO: 5), Hs Gmd (SEQ ID NO: 9), Ec Gmd (SEQ ID NO: 11) and Yp DmhA (SEQ ID NO: 13), while Ec WcaG (SEQ ID NO: 7) is known to be a reductase. […] The reactions were incubated for 16 hours at 37° C., and then quenched by heating at 99° C. for 10 minutes. Samples were analyzed by both HPLC and LC-MS methods.

Data set [7] can be described thus: GDP-L-fucose inhibition assay of GMD enzymes (GDP-4-keto-6-deoxymannose detection). The data set is classed as biochemical. Particulars: 350 μM GDP-L-fucose; 1 mM GDP-mannose, 0.5 mg/mL GMD. The procedure: To test for inhibition, the mutants were expressed and purified as described in Example 7, and assayed at a range of GDP-L-fucose concentrations. The assay conditions were as follows: 50 mM Tris pH 7.5, 1 mM GDP-mannose, 0.5 mM NADP^+, 0.5 mg/mL dehydratase (GMD) enzyme, and 0 μM, 70 μM or 350 μM GDP-L-fucose. The reactions were quenched at 99° C. for 10 minutes, and the enzymes' respective activities were analyzed using the nucleotide sugar LC-MS method by GDP-4-keto-6-deoxymannose detection.

Data set [8] is described as follows: FKP activity towards L-galactose (GDP-L-galactose production). Format: biochemical. The procedure:
FKP naturally catalyzes the conversion of L-fucose into GDP-L-fucose. It has been reported that FKP also could generate GDP-L-galactose from L-galactose (Ohashi et al. 2017). FKP was cloned into pET21, expressed and purified as described in Example 1. The activity of FKP towards L-galactose was assayed under the following conditions: 2 mM L-galactose, 2 mM ATP, 2 mM GTP, 4 mM MgCl2, 50 mM Tris-HCl, pH 7.5 and with or without 0.25 g/L FKP. The samples were incubated at room temperature overnight, and quenched by heating at 99° C. for 10 minutes, and analyzed using LC-MS.
Further work was conducted to optimize the FKP reaction with L-galactose as the substrate, by varying reaction temperature, substrate concentrations, and adding an ATP/GTP regeneration system. The reaction conditions were: 50 mM Tris-HCl pH 7.5, 5 mM MgCl2, 5 mM L-galactose, 2 mM ATP, 2 mM GTP, 10 mM PEP, 1 U pyruvate kinase, and with or without 0.8 mg/mL FKP. The reaction was incubated at 37° C. for 44 hours. The reaction was quenched by heating at 99° C. for 10 minutes. The samples were analyzed using HPLC (FIG. 5).

For “At GME: GDP-mannose-3,5-epimerase from Arabidopsis thaliana, SEQ ID NO: 3”, in data set [1], the “GDP-mannose-3,5-epimerase activity” value is “higher activity than Os GME”.

B1: ASR 12: FutC mutant from ancestral sequence reconstruction, SEQ ID NO: 109 (protein)
chain: MIIIRMSGGLGNQMFQYALYRKLKSMGKEVKIDDITGYEDDNQRSIMLDVFGIDYDKATKEEITKLTDSSMDFLSRIRRKLFGRKSKEYQEEDFNFDPQVLEMDDAYLEGYFQSEKYFQDVREQLRKEFTFRKNSVPELSEQTKELRKQIENSNSVSIHIRRGDYLENSHAEIYGGICTDDYYKKAIEYMKEKFPDAKFYIFSNDIEWAKQHFKGENFVIVDASEENTGYADMYLMSKCKHHIIANSSFSWWGAWLNDNPEKIVIAPSKWLNNKECKDIYTDRMIKIDAKGEVRSEDYGVRTNSTVK
modifications: ASR12
For the molecule B1, the “activity compared to the rest of the ASR library” value in data set [2] is recorded as “improved”. Moreover, in data set [3], the “FutC activity compared to Hp FutC and parent FutC 5” value was “outperformed Hp FutC as well as the parent construct”. Further, in data set [4], the “2′-FL production compared to FutC #5 and Hp FutC” value is on record as “significantly higher”. Also, the “solubility compared to the rest of the ASR library” value in data set [5] is reported as “improved”.

B2: At WT: GDP-mannose-4,6-dehydratase from Arabidopsis thaliana, wild type, SEQ ID NO: 5 (protein, listed as Arabidopsis thaliana)
chain: MASENNGSRSDSESITAPKADSTVVEPRKIALITGITGQDGSYLTEFLLGKGYEVHGLIRRSSNFNTQRINHIYIDPHNVNKALMKLHYADLTDASSLRRWIDVIKPDEVYNLAAQSHVAVSFEIPDYTADVVATGALRLLEAVRSHTIDSGRTVKYYQAGSSEMFGSTPPPQSETTPFHPRSPYAASKCAAHWYTVNYREAYGLFACNGILFNHESPRRGENFVTRKITRALGRIKVGLQTKLFLGNLQASRDWGFAGDYVEAMWLMLQQEKPDDYVVATEEGHTVEEFLDVSFGYLGLNWKDYVEIDQRYFRPAEVDNLQGDASKAKEVLGWKPQVGFEKLVKMMVDEDLELAKREKVLVDAGYMDAKQQP
For B2, in data set [6] (5 mM GDP-L-Gal, 2.4 g/L At Gmd, 3.2 g/L Ec WcaG, 16 hours, 37° C.), the “dehydratase activity towards GDP-L-galactose” value is recorded as “has dehydratase activity towards GDP-L-galactose”. For the same molecule, the initial dehydratase activity entry in data set [6] (among four potential dehydratases screened) is “highest initial activity”. This molecule also showed a decrease in activity in data set [7] of 95%.

B3: FKP: fucokinase/guanylyltransferase from Bacteroides fragilis, SEQ ID NO: 1 (protein, listed as Bacteroides fragilis)
chain: MQKLLSLPPNLVQSFHELERVNRTDWFCTSDPVGKKLGSGGGTSWLLEECYNEYSDGATFGEWLEKEKRILLHAGGQSRRLPGYAPSGKILTPVPVFRWERGQHLGQNLLSLQLPLYEKIMSLAPDKLHTLIASGDVYIRSEKPLQSIPEADVVCYGLWVDPSLATHHGVFASDRKHPEQLDFMLQKPSLAELESLSKTHLFLMDIGIWLLSDRAVEILMKRSHKESSEELKYYDLYSDFGLALGTHPRIEDEEVNTLSVAILPLPGGEFYHYGTSKELISSTLSVQNKVYDQRRIMHRKVKPNPAMFVQNAVVRIPLCAENADLWIENSHIGPKWKIASRHIITGVPENDWSLAVPAGVCVDVVPMGDKGFVARPYGLDDVFKGDLRDSKTTLTGIPFGEWMSKRGLSYTDLKGRTDDLQAASVFPMVNSVEELGLVLRWMLSEPELEEGKNIWLRSERFSADEISAGANLKRLYAQREEFRKGNWQALAVNHEKSVFYQLDLADAAEDFVRLGLDMPELLPEDALQMSRIHNRMLRARILKLDGKDYRPEEQAAFDLLRDGLLDGISNRKSTPKLDVYSDQIVWGRSPVRIDMAGGWTDTPPYSLYSGGNVVNLAIELNGQPPLQVYVKPCKDFHIVLRSIDMGAMEIVSTFDELQDYKKIGSPFSIPKAALSLAGFAPAFSAVSYASLEEQLKDFGAGIEVTLLAAIPAGSGLGTSSILASTVLGAINDFCGLAWDKNEICQRTLVLEQLLTTGGGWQDQYGGVLQGVKLLQTEAGFAQSPLVRWLPDHLFTHPEYKDCHLLYYTGITRTAKGILAEIVSSMFLNSSLHLNLLSEMKAHALDMNEAIQRGSFVEFGRLVGKTWEQNKALDSGTNPPAVEAIIDLIKDYTLGYKLPGAGGGGYLYMVAKDPQAAVRIRKILTENAPNPRARFVEMTLSDKGFQVSRS
Turning to B3, the “conversion of L-galactose to GDP-L-galactose” value in data set [8] (2 mM L-galactose, 0.25 g/L FKP, room temperature overnight, LC-MS) is on record as “catalyzes the conversion of L-galactose to GDP-L-galactose”. Further, the “final titer of GDP-L-galactose” value in data set [8] (5 mM L-galactose, 0.8 mg/mL FKP, PEP/pyruvate kinase regeneration, 37° C., 44 hours) came to 2.5 g/L.
